Read-outs that look alike come from different tables or passages of the source.
Key:
Assay in all cases: EMSA
[1] = biological target: T1, Runx1 Runt domain (CBF alpha2);CBFbeta (human?;human?, UniProt Q01196;Q13951 50-183;2-135, |)
[2] = biological target: T1, Runx1 Runt domain (CBF alpha2);CBFbeta; remark: listed apart in the source
[3] = biological target: T1, Runx1 Runt domain (CBF alpha2);CBFbeta; remark: listed apart in the source
[4] = biological target: T1, Runx1 Runt domain (CBF alpha2);CBFbeta; remark: listed apart in the source

T1 sequence (Q01196 50-183, chain 1 of 2): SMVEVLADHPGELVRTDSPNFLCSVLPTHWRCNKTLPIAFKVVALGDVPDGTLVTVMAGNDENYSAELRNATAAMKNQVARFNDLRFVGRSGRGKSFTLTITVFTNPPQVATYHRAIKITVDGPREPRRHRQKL
T1 sequence (Q13951 2-135, chain 2 of 2): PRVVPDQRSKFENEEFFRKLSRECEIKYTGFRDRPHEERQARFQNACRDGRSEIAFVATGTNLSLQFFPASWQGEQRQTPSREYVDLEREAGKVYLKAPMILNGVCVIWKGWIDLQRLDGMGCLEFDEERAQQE

B1: GM450Δ443 (dsDNA)
DNA 1: AGATCTCTCACTGCCCACAAAC
DNA 2: AGGTTTGTGGGCAGTGAGAGAT
binding result [1]: binds

B2: GM450Δ443/452 (dsDNA)
DNA 1: AGATCTCTCACTGCGTAGAAAC
DNA 2: AGGTTTCTACGCAGTGAGAGAT
binding result [2]: no binding

B3: WT GM450 (dsDNA)
DNA 1: AGATGTGTGGCTGCCCACAAAC
DNA 2: AGGTTTGTGGGCAGCCACACAT
binding result [3]: binds

B4: GM450Δ452 (dsDNA)
DNA 1: AGATGTGTGGCTGCGTAGAAAC
DNA 2: AGGTTTCTACGCAGCCACACAT
binding result [1]: binds

B5: Crystal palindrome (dsDNA)
DNA 1: AGATGTGCGGTCGACCGCAAAC
DNA 2: AGGTTTGCGGTCGACCGCACAT
binding result [4]: binds

— paper PMC2952845
